{"source": "patent CN116829596A", "about": "(AUSTIA THERAPEUTICS INC, dated 2023)", "binders": {"B1": {"name": "MAb4-YTE (antibody, human IgG1, kappa)", "heavy": "QVQLVQSGAEVKKPGSSVKVSCKASGYAFSSYWMNWVRQAPGQGLEWIGQIYPGDDDTNYNAKFQGRVTITVDKSTTTAYMELSSLRSEDTAVYFCAGSLMVTTGAPFDYWGQGTTVTVSSASTKGPSVFPLAPSSKSTSGGTAALGCLVKDYFPEPVTVSWNSGALTSGVHTFPAVLQSSGLYSLSSVVTVPSSSLGTQTYICNVNHKPSNTKVDKRVEPKSCDKTHTCPPCPAPELLGGPSVFLFPPKPKDTLYITREPEVTCVVVDVSHEDPEVKFNWYVDGVEVHNAKTKPREEQYNSTYRVVSVLTVLHQDWLNGKEYKCKVSNKALPAPIEKTISKAKGQPREPQVYTLPPSREEMTKNQVSLTCLVKGFYPSDIAVEWESNGQPENNYKTTPPVLDSDGSFFLYSKLTVDKSRWQQGNVFSCSVMHEALHNHYTQKSLSLSPG", "light": "DIQMTQSPSSLSASVGDRVTITCKASQDVGIAVAWYQQKPGKAPKFLIYYASHRGWGVPDRFSGSGSGTDFTLTISSLQPEDFATYFCQQYRSYPLTFGQGTKLEIKRTVAAPSVFIFPPSDEQLKSGTASVVCLLNNFYPREAKVQWKVDNALQSGNSQESVTEQDSKDSTYSLSSTLTLSKADYEKHKVYACEVTHQGLSSPVTKSFNRGEC", "notes": "Humanised full-length human IgG1 kappa; also called Mab-YTE"}, "B2": {"name": "MAb4-LS (antibody, human IgG1, kappa)", "heavy": "not shown", "light": "B1 light", "notes": "Humanised full-length human IgG1 kappa"}}, "key": {"[1]": {"target": "T1, 人类血浆激肽释放酶 (human plasma kallikrein) (human, UniProt P03952 20-390; P03952 391-638)", "T1 construct": "The active enzyme is a cleaved two-chain form; also called pkal; pKal", "T1 sequence (P03952 20-390 S143N limits assumed, chain 1 of 2)": "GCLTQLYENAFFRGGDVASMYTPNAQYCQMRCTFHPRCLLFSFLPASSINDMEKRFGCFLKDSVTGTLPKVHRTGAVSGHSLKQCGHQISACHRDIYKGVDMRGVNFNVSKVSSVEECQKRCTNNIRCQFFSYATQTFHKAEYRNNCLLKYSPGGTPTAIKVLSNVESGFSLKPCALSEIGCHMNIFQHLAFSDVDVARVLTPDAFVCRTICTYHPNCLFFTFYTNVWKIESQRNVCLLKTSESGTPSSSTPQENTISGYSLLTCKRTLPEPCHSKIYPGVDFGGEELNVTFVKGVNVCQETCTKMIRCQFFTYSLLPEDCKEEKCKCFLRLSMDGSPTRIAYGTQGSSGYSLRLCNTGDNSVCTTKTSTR", "T1 sequence (P03952 391-638 limits assumed, chain 2 of 2)": "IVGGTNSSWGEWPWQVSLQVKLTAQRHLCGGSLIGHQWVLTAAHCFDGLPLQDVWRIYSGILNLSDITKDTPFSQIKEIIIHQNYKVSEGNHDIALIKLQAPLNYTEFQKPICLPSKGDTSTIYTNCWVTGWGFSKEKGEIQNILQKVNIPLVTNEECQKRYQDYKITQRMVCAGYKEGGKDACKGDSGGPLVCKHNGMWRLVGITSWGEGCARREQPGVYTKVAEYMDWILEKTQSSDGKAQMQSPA", "test": "SPR, 37 C"}, "[2]": {"target": "T1, 人类血浆激肽释放酶 (human plasma kallikrein)", "test": "SPR, 37 C, pH 6.0"}, "[3]": {"target": "T1, 人类血浆激肽释放酶 (human plasma kallikrein)", "test": "SPR, 37 C, pH 7.4"}, "[4]": {"target": "T1, 人类血浆激肽释放酶 (human plasma kallikrein)", "test": "SPR, 37 C, pH 7.4 or pH 6.0"}}}
{"binder": "B1", "values": [{"measurement": "fold stronger binding affinity than DX-2930", "setting": "[1]", "result": "> 5 倍"}, {"measurement": "Kd", "setting": "[2]", "result": 0.9, "unit": "nM"}, {"measurement": "Kd", "setting": "[3]", "result": 1.1, "unit": "nM"}, {"measurement": "fold affinity for plasma kallikrein over prekallikrein", "setting": "[4]", "result": "> 1000 倍"}]}
{"binder": "B2", "values": [{"measurement": "fold stronger binding affinity than DX-2930", "setting": "[1]", "result": "> 5 倍"}, {"measurement": "Kd", "setting": "[2]", "result": 1.2, "unit": "nM"}, {"measurement": "Kd", "setting": "[3]", "result": 2.2, "unit": "nM"}, {"measurement": "fold affinity for plasma kallikrein over prekallikrein", "setting": "[4]", "result": "> 1000 倍"}]}
